# Values of other authors, collected in patent US9782344B2, “Stable glucagon peptide formulations” (ZP Opco, Inc., priority 2013, dated 2017).
# Read-outs that look alike come from different tables or passages of the source.
substance,measurement,setting,value
glucagon,behaviour in aqueous solution,pH below 3 or above 9,readily dissolved
same,behaviour in aqueous solution,pH between 4 and 8,precipitates readily
